One molecule from paper PMC6212441, “Direct visualization of DNA baton pass between replication factors bound to PCNA” (Scientific Reports, 2018) can be followed below.

In experiment [1] the target is T1, P. furiosus proliferating cell nuclear antigen (PCNA) (Pyrococcus furiosus), O73947.
T1 chain: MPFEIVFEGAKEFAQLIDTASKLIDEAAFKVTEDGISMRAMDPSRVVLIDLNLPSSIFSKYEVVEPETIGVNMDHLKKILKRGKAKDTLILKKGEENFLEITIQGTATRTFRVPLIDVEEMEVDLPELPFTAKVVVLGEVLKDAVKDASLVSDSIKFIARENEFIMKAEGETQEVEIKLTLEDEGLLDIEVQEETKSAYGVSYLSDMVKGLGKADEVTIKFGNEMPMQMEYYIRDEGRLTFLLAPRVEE
In words: negative-stain electron microscopy, single particle analysis; FEN (D175A), PCNA and double flap DNA (Substrate-A) mixed in 50 mM Tris-HCl pH 8.0, 50 mM NaCl, 37 °C 10 min; complex isolated on Superdex 200 without crosslinking; 2% uranyl acetate stain; map at 19 Å with crystal structures fitted. The conditions noted are these: remark: other sources report otherwise.

Experiment [2] deals with T2, P. furiosus DNA ligase (Lig) (Pyrococcus furiosus, UniProt P56709 1-561).
T2 construct: DNA ligase (Lig) of Pyrococcus furiosus, with DBD, AdD and OBD domains and the PIP-box motif 103-QKSFF-107
T2 sequence: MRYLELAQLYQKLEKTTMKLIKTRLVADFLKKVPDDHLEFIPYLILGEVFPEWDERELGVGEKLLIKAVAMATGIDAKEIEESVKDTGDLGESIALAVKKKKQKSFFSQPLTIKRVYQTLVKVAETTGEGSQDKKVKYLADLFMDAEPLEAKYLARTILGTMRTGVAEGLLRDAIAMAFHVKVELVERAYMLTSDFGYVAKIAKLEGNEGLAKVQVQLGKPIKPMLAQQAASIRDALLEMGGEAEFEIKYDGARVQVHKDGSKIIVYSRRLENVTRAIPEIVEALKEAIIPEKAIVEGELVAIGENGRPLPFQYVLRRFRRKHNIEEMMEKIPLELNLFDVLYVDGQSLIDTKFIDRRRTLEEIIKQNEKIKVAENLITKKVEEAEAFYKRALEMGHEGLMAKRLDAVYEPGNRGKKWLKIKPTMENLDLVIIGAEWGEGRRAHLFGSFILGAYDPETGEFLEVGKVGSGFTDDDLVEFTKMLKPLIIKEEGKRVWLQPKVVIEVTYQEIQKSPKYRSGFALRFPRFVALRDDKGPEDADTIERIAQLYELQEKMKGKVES
In words: negative-stain electron microscopy, single particle analysis; wild type FEN, Lig, PCNA and nonligatable nicked DNA (Substrate-B) mixed in 20 mM MES pH 6.5, 50 mM NaCl, 0.1 mM ATP, 5 mM MgCl2, 50 °C 10 min; complex isolated on Superdex 200 without crosslinking; 2% uranyl acetate stain; two classes, maps at 16 Å and 20 Å with crystal structures fitted. The conditions noted are these: both partners purified.

B1: P. furiosus proliferating cell nuclear antigen (PCNA) (natural protein, Pyrococcus furiosus)
chain: T1 chain
notes: proliferating cell nuclear antigen (PCNA) of Pyrococcus furiosus, forms a homotrimeric ring; also called PCNA clamp; PCNA ring
In general, stoichiometry N refers to the number of molecules, sites or subunits per partner or assembly. On to B1, for which the stoichiometry N in experiment [1] came out at 3. For the same molecule, in experiment [2], the binding result is on record as “binds”.
